Data on 3 molecules can be found in PMC4182837, “BosR Functions as a Repressor of the ospAB Operon in Borrelia burgdorferi”.

Sequences and labels used below:
B1: cisI probe (dsDNA)
DNA 1: TAATTAGAACCAAACTTAATTAAAACCAAACTTAATTGAAGTTATTATCATTTTATTTTTTTTCAATTTT
DNA 2: AAAATTGAAAAAAAATAAAATGATAATAACTTCAATTAAGTTTGGTTTTAATTAAGTTTGGTTCTAATTA
B2: cisII probe (dsDNA)
DNA 1: TGTTATTTGTTAATCTTATAATATAATTATACTTGTATTAAGTTATATTAATATAAAAGGAGAATATATT
DNA 2: AATATATTCTCCTTTTATATTAATATAACTTAATACAAGTATAATTATATTATAAGATTAACAAATAACA
B3: IRs probe (ospC operator) (dsDNA)
DNA 1: CAATATTTTTCAAATTCTTCAATATTTATTCAAGATATTGAAGAATTTGAAAAAATTATTTTTTCAAATA
DNA 2: TATTTGAAAAAATAATTTTTTCAAATTCTTCAATATCTTGAATAAATATTGAAGAATTTGAAAAATATTG

In the series the target is BosR (Borrelia burgdorferi B31, UniProt O51592 1-176). In words: EMSA; 400 nM BosR, 1 nM probe, 50 ug/ml salmon sperm DNA. The following applies: protein: recombinant; tags: C-terminal His6 (pET-23a); chain copies: 2; label: 5' digoxigenin on one strand. (A gel shift assay detects complexes by their altered migration in electrophoresis.)
For the molecule B1, the binding result is “binds”.

As to B2, the binding result is recorded as “binds”.

With B3, the binding result is “no binding”.
